From patent US20090232804A1 (GLENMARK PHARMACEUTICALS S A, published 2009)
Several values for one entry are separate records, joined by “and”; a condition that tells them apart may be missing. Equal entries are not always repeated.

Tests used:
[1] = target: His tagged A1 domain of human von Willebrand factor (residues 499-729), expressed in E. coli (human) (UniProt P04275); assay: competition with 100 pM Eu-NMC-4 chimera on plate-coated human His-A1, DELFIA, Cheng-Prusoff
[2] = target: His tagged A1 domain of human von Willebrand factor (residues 499-729), expressed in E. coli (human) (UniProt P04275); assay: ratio of the kinetic constants (row printed as 'kon/koff'), DELFIA, 37 °C
[3] = target: His tagged A1 domain of human von Willebrand factor (residues 499-729), expressed in E. coli (human) (UniProt P04275); assay: calculated from koff, DELFIA kinetics on plate-coated His-A1, 37 °C
[4] = target: His tagged A1 domain of human von Willebrand factor (residues 499-729), expressed in E. coli (human) (UniProt P04275); assay: homologous competition with Eu-NMC-4 chimera on plate-coated His-A1, DELFIA, Cheng-Prusoff, n = 4
[5] = target: His tagged A1 domain of human von Willebrand factor (residues 499-729), expressed in E. coli (human) (UniProt P04275); assay: equilibrium binding (Scatchard), Eu-labelled antibody on direct-coated His-A1, DELFIA, 37 °C, n = 10
[6] = target: His tagged A1 domain of human von Willebrand factor (residues 499-729), expressed in E. coli (human) (UniProt P04275); assay: DELFIA competitive binding (time-resolved fluorescence): Eu-NMC-4 chimera at 100 pM on wells coated with His-hA1, unlabelled competitor antibody varied (homologous competition)
[7] = target: His tagged A1 domain of human von Willebrand factor (residues 499-729), expressed in E. coli (human) (UniProt P04275); assay: homologous competition with 100 pM Eu-NMC-4 chimera on plate-coated human His-A1, DELFIA, Cheng-Prusoff
[8] = target: His tagged A1 domain of human von Willebrand factor (residues 499-729), expressed in E. coli (human) (UniProt P04275); assay: DELFIA competitive binding format (time-resolved fluorescence): Eu-NMC-4 chimera at 100 pM on wells coated with His-hA1, unlabelled AJW200 varied; EC50 of the enhancement of Eu-NMC-4 binding
[9] = target: purified human von Willebrand factor (vWF) (human) (UniProt P04275); assay: cell-based or functional assay
[10] = target: T1, purified human von Willebrand factor (vWF) (human, UniProt P04275 764-2813); assay: cell-based or functional assay
[11] = target: T1, purified human von Willebrand factor …; assay: cell-based or functional assay; remark: listed apart in the source
[12] = target: T1, purified human von Willebrand factor …; assay: cell-based or functional assay; remark: listed apart in the source
[13] = target: T1, purified human von Willebrand factor …; assay: cell-based or functional assay; remark: listed apart in the source
[14] = target: T2, His tagged A1 domain of rat von Willebrand factor, expressed in E. coli (rat, UniProt Q62935 13-256); assay: equilibrium binding (Scatchard), Eu-labelled antibody on direct-coated His-A1, DELFIA, 37 °C, n = 5
T2 construct: domain: A1 domain; also called His-A1 (rat); His-rA1; not shown: His tag from the pETDuet-1 vector

[15] = target: T2, His tagged A1 domain of rat von …; assay: ratio of the kinetic constants (row printed as 'kon/koff'), DELFIA, 37 °C
[16] = target: T2, His tagged A1 domain of rat von …; assay: calculated from koff, DELFIA kinetics on plate-coated His-A1, 37 °C
[17] = target: T2, His tagged A1 domain of rat von …; assay: homologous competition with Eu-NMC-4 chimera on plate-coated rat His-A1, DELFIA, Cheng-Prusoff, n = 3
Method: Wells of Immulon-4 plates are coated with His-A1 domain of vWF from human (e.g., 25 ng in 100 μl/well in 30 mM Tris, pH 7.4 and 300 mM NaCl or divalent cation-free PBS) or rat (e.g., 50 ng/well) by incubating overnight at 4° C. The plates are washed three times with Wash Buffer (e.g., 50 mM HEPES, pH 7.4, 150 mM NaCl, 0.5% Tween-20), blocked with 300 μl/well Blocking Buffer (e.g., Wash Buffer containing 3.0 mg/ml IgG-free BSA and 0.1% sodium azide) for 1 hour at room temperature and washed 5 times with Wash Buffer before use.
Competitive binding studies may be performed to determine Ki values (e.g., a measure of relative affinity for antigen). […] The final concentration of europium-labeled antibody is 100 pM.

[18] = target: T2, His tagged A1 domain of rat von …; assay: DELFIA association kinetics, Eu-labelled antibody on plate-coated His-A1, 37 °C

## NMC-4 monoclonal antibody (murine anti-vWF antibody, IgG1κ)
[1]
  Ki: 0.6 nM

## NMC-4-human Fc chimera (NMC-4 variable regions on human IgG1(dm) and human kappa constant regions) (antibody)
[2]
  Kd: 0.39 nM
[3]
  Dissociation half-life: 44 min
[4]
  Ki: 0.275 nM
[5]
  Kd: 0.316 nM
[6]
  IC50 (read off the curve): 0.6 nM
[7]
  Ki: 0.28 nM

## AJW200 reference antibody (anti-vWF A1 domain, cloned with human IgG1(dm) constant region)
[8]
  EC50 (read off the curve): 0.2 nM
[9]
  EC50, ristocetin-induced platelet agglutination assay: 0.27 nM

B1: humanized NMC-4 variant H8, L5 (IgG1) (antibody, V domains shown)
VH: QVQLQESGPGLVKPSETLSLTCTVSGFSLTDYGVDWIRQPPGKGLEWIGMIWGDGSTDYNSALKSRLTISKDNSKNQFSLKLSSVTAADTAVYYCVRDPADYGNYDYALDYWGQGTSLTVSS
VL: DIQMTQSPSSLSASVGDRVTITCSASQDINKYLNWYQQKPGKAVKLLIFYTSSLHSGVPSRFSGSGSGTDYTLTISSLQPEDIATYYCQQYEKLPWTFGQGTKVEIK
[10]
  EC50: 0.28 nM
[11]
  fold change of EC50 against the other variants: 1.5 fold

B2: humanized NMC-4 variant H9, L9 (CDR-grafted), IgG1 (antibody, V domains shown)
VH: QVQLQESGPGLVKPSETLSLTCTVSGFSLTDYGVDWIRQPPGKGLEWIGMIWGDGSTDYNSALKSRVTISVDTSKNQFSLKLSSVTAADTAVYYCARDPADYGNYDYALDYWGQGTLVTVSS
VL: DIQMTQSPSSLSASVGDRVTITCSASQDINKYLNWYQQKPGKAPKLLIYYTSSLHSGVPSRFSGSGSGTDFTLTISSLQPEDFATYYCQQYEKLPWTFGQGTKVEIK
[12]
  Platelet agglutination EC50, single experiment: 1.3 nM
  Platelet agglutination EC50 mean value (from 2 independent expts.): 1.3 nM
[13]
  EC50 (nM), platelet agglutination assay: 0.12 nM
[10]
  EC50: 0.12 nM

B3: NMC-4 monoclonal antibody (murine anti-vWF antibody, IgG1κ) (antibody, V domains shown)
VH: QVQLKESGPGLVAPSQSLSITCTVSGFSLTDYGVDWVRQPPGKGLEWLGMIWGDGSTDYNSALKSRLSITKDNSKSQVFLKMNSLQTDDTARYYCVRDPADYGNYDYALDYWGQGTSVTVSS
VL: DIQMTQSPSSLSASLGDRVTISCSASQDINKYLNWYQQKPDGAVKLLIFYTSSLHSGVPSRFSGSGSGTDYSLTISNLEPEDIATYYCQQYEKLPWTFGGGTKLEVKR
[11]
  EC50, ristocetin-induced platelet agglutination assay: 0.17 nM

B4: humanized NMC-4 variant H12, L9 (IgG1) (antibody, V domains shown)
VH: QVQLQESGPGLVKPSETLSLTCTVSGGSISDYGVDWIRQPPGKGLEWIGMIWGDGSTDYNSALKSRVTISVDTSKNQFSLKLSSVTAADTAVYYCARDPADYGNYDYALDYWGQGTLVTVSS
VL: DIQMTQSPSSLSASVGDRVTITCSASQDINKYLNWYQQKPGKAPKLLIYYTSSLHSGVPSRFSGSGSGTDFTLTISSLQPEDFATYYCQQYEKLPWTFGQGTKVEIK
[13]
  EC50 (nM), platelet agglutination assay: 0.29 nM

B5: humanized NMC-4 variant H13, L9 (IgG1) (antibody, V domains shown)
VH: QVQLQESGPGLVKPSETLSLTCTVSGGSISDYGWDWIRQPPGKGLEWIGMIWGDGSTDYNSALKSRVTISVDTSKNQFSLKLSSVTAADTAVYYCARDPADYGNYDYALDYWGQGTLVTVSS
VL: DIQMTQSPSSLSASVGDRVTITCSASQDINKYLNWYQQKPGKAPKLLIYYTSSLHSGVPSRFSGSGSGTDFTLTISSLQPEDFATYYCQQYEKLPWTFGQGTKVEIK
[13]
  EC50 (nM), platelet agglutination assay: 0.16 nM

B6: humanized NMC-4 variant H14, L9 (IgG1) (antibody, V domains shown)
VH: QVQLQESGPGLVKPSETLSLTCTVSGGSISDYGWDWIRQPPGKGLEWIGMIWGDGSTDYNPSLKSRVTISVDTSKNQFSLKLSSVTAADTAVYYCARDPADYGNYDYALDYWGQGTLVTVSS
VL: DIQMTQSPSSLSASVGDRVTITCSASQDINKYLNWYQQKPGKAPKLLIYYTSSLHSGVPSRFSGSGSGTDFTLTISSLQPEDFATYYCQQYEKLPWTFGQGTKVEIK
[13]
  EC50 (nM), platelet agglutination assay: 0.13 nM

B7: humanized NMC-4 variant H13, L10 (IgG1) (antibody, V domains shown)
VH: QVQLQESGPGLVKPSETLSLTCTVSGGSISDYGWDWIRQPPGKGLEWIGMIWGDGSTDYNSALKSRVTISVDTSKNQFSLKLSSVTAADTAVYYCARDPADYGNYDYALDYWGQGTLVTVSS
VL: DIQMTQSPSSLSASVGDRVTITCQASQDISNYLNWYQQKPGKAPKLLIYYTSSLHSGVPSRFSGSGSGTDFTLTISSLQPEDFATYYCQQYEKLPWTFGQGTKVEIK
[13]
  EC50 (nM), platelet agglutination assay: 0.2 nM

B8: humanized NMC-4 variant H14, L10, IgG1 (antibody, V domains shown)
VH: QVQLQESGPGLVKPSETLSLTCTVSGGSISDYGWDWIRQPPGKGLEWIGMIWGDGSTDYNPSLKSRVTISVDTSKNQFSLKLSSVTAADTAVYYCARDPADYGNYDYALDYWGQGTLVTVSS
VL: DIQMTQSPSSLSASVGDRVTITCQASQDISNYLNWYQQKPGKAPKLLIYYTSSLHSGVPSRFSGSGSGTDFTLTISSLQPEDFATYYCQQYEKLPWTFGQGTKVEIK
[12]
  Platelet agglutination EC50, single experiment: 1.1 nM and 1.3 nM
  Platelet agglutination EC50 mean value (from 2 independent expts.): 1.2 nM
[13]
  EC50 (nM), platelet agglutination assay: 0.22 nM

B9: humanized NMC-4 variant H14, L11 (IgG1) (antibody, V domains shown)
VH: QVQLQESGPGLVKPSETLSLTCTVSGGSISDYGWDWIRQPPGKGLEWIGMIWGDGSTDYNPSLKSRVTISVDTSKNQFSLKLSSVTAADTAVYYCARDPADYGNYDYALDYWGQGTLVTVSS
VL: DIQMTQSPSSLSASVGDRVTITCQASQDISNYLNWYQQKPGKAPKLLIYDASNLETGVPSRFSGSGSGTDFTLTFSSLQPEDFATYYCQQYEKLPWTFGQGTKVEIK
[13]
  EC50 (nM), platelet agglutination assay: 1.63 nM
[11]
  fold lower activity compared to chimera, platelet agglutination assay: 10 fold

B10: NMC-4-human Fc chimera (NMC-4 variable regions on human IgG1(dm) and human kappa constant regions) (antibody, V domains shown)
VH: QVQLKESGPGLVAPSQSLSITCTVSGFSLTDYGVDWVRQPPGKGLEWLGMIWGDGSTDYNSALKSRLSITKDNSKSQVFLKMNSLQTDDTARYYCVRDPADYGNYDYALDYWGQGTSVTVSS
VL: DIQMTQSPSSLSASLGDRVTISCSASQDINKYLNWYQQKPDGAVKLLIFYTSSLHSGVPSRFSGSGSGTDYSLTISNLEPEDIATYYCQQYEKLPWTFGGGTKLEVK
notes: Heavy constant region is human IgG1 with L235E, E318A, K320A, K332A (IgG1(dm)); also called NMC-4 chimera; NMC4 chimera
[14]
  Kd: 0.276 nM
[15]
  Kd: 0.7 nM
[16]
  Dissociation half-life: 69 min
[17]
  Ki: 0.297 nM
[18]
  kon: 233000 M⁻¹ s⁻¹
